Laboratory results taken from patent US20050106145A1 (SIGMA TAU INDUSTRIE FARMACEUTICHE RIUNITE S P A, published 2005).

Assays:
human tenascin-C [1] = molecular target: T1, human tenascin-C (human, UniProt P24821 23-2201, limits assumed); experiment: BIAcore
T1 construct: Extracellular matrix protein; also called SK-MEL-28 purified tenascin

human tenascin-C [2] = molecular target: T1, human tenascin-C; experiment: BIAcore; remark: listed apart in the source
human tenascin-C [3] = molecular target: T1, human tenascin-C; experiment: ELISA, optimal antigen concentration (FIG. 6 panel A)
A1-4D fragment = molecular target: T2, A1-4D fragment (human, UniProt P24821); experiment: Western blot
T2 construct: recombinant antigenic fragment; Lane B of the Western blots; also called A-D fragment
T2 sequence (antigen fragment, looked up): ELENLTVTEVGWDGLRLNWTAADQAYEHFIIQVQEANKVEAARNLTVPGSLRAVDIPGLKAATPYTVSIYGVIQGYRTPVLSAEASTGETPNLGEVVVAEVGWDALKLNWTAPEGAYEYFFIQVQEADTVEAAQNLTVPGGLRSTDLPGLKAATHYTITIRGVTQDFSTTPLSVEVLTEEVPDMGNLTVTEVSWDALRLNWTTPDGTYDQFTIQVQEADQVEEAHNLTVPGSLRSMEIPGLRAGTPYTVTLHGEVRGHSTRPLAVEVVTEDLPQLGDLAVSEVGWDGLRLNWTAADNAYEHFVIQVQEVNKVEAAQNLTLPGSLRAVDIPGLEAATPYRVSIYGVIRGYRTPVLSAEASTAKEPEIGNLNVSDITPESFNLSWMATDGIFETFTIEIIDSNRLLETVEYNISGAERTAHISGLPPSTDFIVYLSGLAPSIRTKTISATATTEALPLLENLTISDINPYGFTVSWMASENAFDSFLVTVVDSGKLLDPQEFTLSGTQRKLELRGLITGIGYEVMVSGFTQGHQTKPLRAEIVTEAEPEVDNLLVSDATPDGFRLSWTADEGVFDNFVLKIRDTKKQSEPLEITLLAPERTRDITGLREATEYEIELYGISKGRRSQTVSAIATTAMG

human tenascin-C [4] = molecular target: T1, human tenascin-C; experiment: BIAcore, comparison with BC4

T1 sequence (P24821 23-2201 limits assumed): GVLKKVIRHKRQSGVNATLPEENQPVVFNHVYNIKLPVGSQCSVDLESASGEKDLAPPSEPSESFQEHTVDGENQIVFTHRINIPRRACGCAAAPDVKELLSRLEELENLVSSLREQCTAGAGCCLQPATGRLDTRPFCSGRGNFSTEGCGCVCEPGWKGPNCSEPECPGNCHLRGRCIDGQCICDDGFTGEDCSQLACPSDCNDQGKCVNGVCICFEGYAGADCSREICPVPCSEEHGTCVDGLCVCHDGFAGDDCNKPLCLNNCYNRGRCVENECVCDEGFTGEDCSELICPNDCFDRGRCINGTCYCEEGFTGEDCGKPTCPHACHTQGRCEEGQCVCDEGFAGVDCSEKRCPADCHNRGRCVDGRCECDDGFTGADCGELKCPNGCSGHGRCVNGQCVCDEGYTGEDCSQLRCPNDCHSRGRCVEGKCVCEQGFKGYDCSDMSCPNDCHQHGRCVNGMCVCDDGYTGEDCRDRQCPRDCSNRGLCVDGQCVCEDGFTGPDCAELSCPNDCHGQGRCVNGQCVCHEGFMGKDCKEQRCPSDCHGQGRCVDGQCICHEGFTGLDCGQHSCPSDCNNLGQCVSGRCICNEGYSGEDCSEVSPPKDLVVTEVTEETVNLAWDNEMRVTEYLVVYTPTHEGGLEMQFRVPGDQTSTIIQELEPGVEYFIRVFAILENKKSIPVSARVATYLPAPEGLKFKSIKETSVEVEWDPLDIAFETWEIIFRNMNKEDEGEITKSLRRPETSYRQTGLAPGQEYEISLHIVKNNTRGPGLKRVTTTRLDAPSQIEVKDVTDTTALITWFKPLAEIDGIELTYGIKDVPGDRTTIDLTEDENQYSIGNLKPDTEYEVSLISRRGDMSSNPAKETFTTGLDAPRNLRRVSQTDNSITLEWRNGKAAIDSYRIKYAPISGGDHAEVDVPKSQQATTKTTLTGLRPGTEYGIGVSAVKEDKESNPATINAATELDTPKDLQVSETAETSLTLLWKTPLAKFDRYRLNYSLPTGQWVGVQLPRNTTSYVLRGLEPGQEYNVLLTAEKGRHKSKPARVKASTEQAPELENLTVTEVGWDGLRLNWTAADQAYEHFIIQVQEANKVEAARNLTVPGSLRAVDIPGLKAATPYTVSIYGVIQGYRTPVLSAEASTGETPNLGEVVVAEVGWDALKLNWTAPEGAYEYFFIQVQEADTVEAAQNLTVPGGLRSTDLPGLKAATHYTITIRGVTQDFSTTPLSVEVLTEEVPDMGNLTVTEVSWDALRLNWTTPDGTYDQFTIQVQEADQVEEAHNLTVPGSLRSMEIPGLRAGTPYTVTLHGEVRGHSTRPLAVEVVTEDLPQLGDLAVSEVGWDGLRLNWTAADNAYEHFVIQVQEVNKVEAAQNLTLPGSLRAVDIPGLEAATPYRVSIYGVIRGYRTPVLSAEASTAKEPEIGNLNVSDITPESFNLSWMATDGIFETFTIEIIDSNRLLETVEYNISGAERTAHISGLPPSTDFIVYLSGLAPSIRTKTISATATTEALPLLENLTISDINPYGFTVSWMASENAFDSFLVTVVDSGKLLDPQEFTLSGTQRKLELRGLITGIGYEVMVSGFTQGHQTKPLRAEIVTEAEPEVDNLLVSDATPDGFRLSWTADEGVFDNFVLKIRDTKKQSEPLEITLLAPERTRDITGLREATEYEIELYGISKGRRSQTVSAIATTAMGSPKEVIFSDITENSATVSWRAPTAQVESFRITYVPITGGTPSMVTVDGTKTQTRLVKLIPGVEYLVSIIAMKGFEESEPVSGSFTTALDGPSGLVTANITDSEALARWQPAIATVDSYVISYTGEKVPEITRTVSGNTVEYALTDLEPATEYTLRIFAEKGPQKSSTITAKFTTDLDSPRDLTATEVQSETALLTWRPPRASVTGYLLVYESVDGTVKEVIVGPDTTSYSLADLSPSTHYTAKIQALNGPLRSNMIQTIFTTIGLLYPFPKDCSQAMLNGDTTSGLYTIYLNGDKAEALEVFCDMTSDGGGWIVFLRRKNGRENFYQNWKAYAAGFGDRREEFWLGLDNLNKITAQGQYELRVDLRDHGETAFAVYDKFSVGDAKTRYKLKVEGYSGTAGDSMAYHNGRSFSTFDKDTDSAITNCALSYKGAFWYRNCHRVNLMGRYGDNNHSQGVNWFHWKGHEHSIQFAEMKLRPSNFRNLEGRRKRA

koff (human tenascin-C [1]): 0.00041 s⁻¹
kon (human tenascin-C [1]): 300000 M⁻¹ s⁻¹
Kd (human tenascin-C [2]): 1.4 nM
fold less antibody to obtain 1.0 OD than BC4 (human tenascin-C [3]): ~100 fold
fold less antibody to obtain 1.0 OD than the fully reactive peak 3 of BC4 (human tenascin-C [3]): ~20 fold
binding result (A1-4D fragment): no binding
fold affinity against BC4 (human tenascin-C [4]): ~3 fold
B1: ST2146 anti-human tenascin monoclonal antibody (antibody, V domains shown)
VH: KVKLQQSGPELVKPGASVKVSCKASGYAFTSYNMYWVKQSHGKSLEWIGYIDPYNGVTSYNQKFKGKATLTVDKSSSTAYMHLNSLTSEDSAVYYCARGGGSIYYAMDYWGQGTTVTVSS
VL: DIVMTQAAPSVPVTPGESVSISCRSSKSLLHSNGNTYLYWFLQRPGQSPQLLIYRMSNLASGVPDRFSGSGSGTAFTLRISRVEAEDVGVYYCMQHLEYPLTFGAGTKLELKR
notes: Mouse immunoglobulin of IgG2b/k isotype from hybridoma cST2146; Heavy chain is heterogeneously O-glycosylated
